# Results from article PMC11376072, “Moderately thermostable GH1 β-glucosidases from hyperacidophilic archaeon Cuniculiplasma divulgatum S5” (FEMS Microbiology Ecology, 2024).
# B1: CIB12, GH1 β-glucosidase from Cuniculiplasma divulgatum S5 (enzyme)
# chain: MFPKNFKFGFSEAGFQFEMGVSDIDTNTDWYKWSHDSENIKNHIVSGDRPEEGVGYWDLYPKDHDLAEYIGMNAARIGIEWSRIFPVSTERVTVEVIEENGDILEIKITEKTIKELDLLSDKNAMQHYTNIFNDIKKRGWFLVINLFHWSLPLWINDPSNRNSEKDNALGNCMNRSSVIEFVKYAAYISYYFGSIADRFATMNEPNEVFKTCSEDKRVESYHIRMKWFVEAHARSYDAMKQFTNRQIGVIYANGDVQSFENKDPKLKEEVEYEQRYSFFDALIHGDVHWYVGACRKTNHVHGKSIRPDLSNRIDWIGVNYYSRNVVKRKEDGYENVRGLGYDTGWVSYEKSLDGRSVSETGWEIYPEGIYNIVMSYHKRYELPMMITENGMADDNDRFRPRYLVSHLKNLERAINDGAKVDGYLHWALTDNFEWGSGFSKKFGLIKVDYKTKKRYLRPSALIMKEITKHNGIPEELEWLGEDKF
# notes: CIB12, GH1 β-glucosidase of Cuniculiplasma divulgatum S5 (JCM 30642), GenBank SIM59545.1, locus tag CSP5_0942; predicted monomeric mass 56.8 kDa; Cloned into p15TvL with an N-terminal 6His-tag; also called CSP5_0942; source: E. coli BL21(DE3) Lobstr, purified (Ni-NTA)
# B2: CIB13, GH1 β-glucosidase from Cuniculiplasma divulgatum S5 (enzyme)
# chain: MLPKGFRFGFSLAGFQSEMGLSGKDENSDWYQWCHDEYNIKNGVVSGDFPENGAAYWDLFRKDHETAVNIGMNSTRIGIEWSRIFPTSTEGVKVRIDRDGDNITGITIEKSDLESLKKICNMDAVKKYREIFMDLKDRNFYMILNLFHWSMPLWINDPRKREISKGNNLGNFFSEKSVIEFAKFAAFAAYSFDDLVDVYSTMNEPNVVFSGGNNNSEKKYYSKMKFFIEAHARAYDCIRTISRKRIGVIYANEHIESLENSDPELVEEVTWRNRYSFIDSIKSGKTFSTKNMEENSRWPEKNVFRKDLENRLDWIGVNYYSRYVVRRIESGFEAIDGYGFLCSGYEKSKDGRVVSEMGWEIYPQGLYDVLMGYQERYSLPMMVTENGIADDMDRYRPGFLISHMKMIERAIKDGAGVEGYLHWSLTDNFEWSSGFSKKFGLLRVDYRTKKRSIRPSALVFREISKKSGVPEELEWLGERFY
# notes: CIB13, GH1 β-glucosidase of Cuniculiplasma divulgatum S5 (JCM 30642), GenBank SIM79973.1, CSP5_1651; predicted monomeric mass 56.1 kDa; Cloned into p15TvL with an N-terminal 6His-tag; also called CSP5_1651; source: E. coli BL21(DE3) Lobstr, purified (Ni-NTA)
# Legend:
# [1] = substrate: O=[N+]([O-])c1ccc(O[C@@H]2O[C@H](CO)[C@@H](O)[C@H](O)[C@H]2O)cc1; experiment: purified protein; settings: 50 mM MES pH 5.0, 30°C, 30 min, 0-10 mM substrate
# [2] = target: the molecule itself; experiment: SEC; size-exclusion chromatography of the purified protein; conditions not given
protein,measurement,setting,value
B1,Km,[1],500 ± 100 µM
same,Vmax,[1],0.61 µmol/min/mg
same,kcat,[1],0.57 s⁻¹
same,stoichiometry N,[2],2
B2,Km,[1],900 ± 100 µM
same,Vmax,[1],0.93 µmol/min/mg
same,kcat,[1],0.87 s⁻¹
same,stoichiometry N,[2],2
